# Target: enterokinase
protein,measurement,value
protein of the present invention having an amino acid sequence shown in SEQ ID NO:1 (protein) YDPEAASAPGSGNPCHEASAAQKENAGEDPGLARQAPKPRKQRSSLLEKGLDGAKKAVGGLGKLGKDAVEDLESVGKGAVHDVKDVLDSVL,amidolytic activity against the fluorescent peptide substrate for trypsin (increase in fluorescence intensity),a minimal proteolytic activity exhibited by enterokinase alone was significantly enhanced by the protein of the present invention immunoprecipitated from JAR cells
